Results: patent US20260152555A1 (HUAHUI HEALTH, published 2026)

What was measured:
[1] = target: human CD112R, full length, expressed on cells (YTS-hCD112R; Jurkat-NFAT-luc-hCD112R) (human) (UniProt Q6DKI7); assay: cell-based or functional assay
hCD112R-ECD-His6-Avi [2] = target: T1, hCD112R-ECD-His6-Avi (human, UniProt Q6DKI7 42-172, biotinylated (Avi tag) in the ELISA assays); assay: SPR (Biacore T200), multi-cycle, 733-mIgG2a captured by Protein A/G, hCD112R-ECD-His6-Avi as analyte, 1:1 Langmuir model
T1 construct: range 42-172; Expressed in HEK 293F cells; Analyte in SPR, and captured on streptavidin in ELISA; also called biotinylated hCD112R-ECD-His6-Avi; not shown: C-terminal His6-Avi tag
T1 sequence (looked up): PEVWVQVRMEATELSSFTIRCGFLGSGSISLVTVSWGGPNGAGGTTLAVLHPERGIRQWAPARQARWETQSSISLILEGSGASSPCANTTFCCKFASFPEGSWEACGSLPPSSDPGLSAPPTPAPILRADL
Experimental: (§1) Protein A/G (Thermo Fisher) was covalently attached to surfaces of a CM5 sensor chip using an amine coupling kit (GE Healthcare). […] Binding kinetics were evaluated using a 1:1 Langmuir binding model. The association rates (ka), dissociation rates (kd), and affinity constants (KD) were calculated using Biacore T200 evaluation software.

[3] = target: T2, human CD112R, full length, expressed on cells (YTS-hCD112R; Jurkat-NFAT-luc-hCD112R) (human, UniProt Q6DKI7 42-326); assay: FACS competition on YTS-hCD112R cells against hCD112-ECD-hFc, ligand detected with goat anti-human IgG-FITC
T2 construct: whole, on cells; also called PVRIG; YTS-hCD112R cells
T2 sequence (looked up): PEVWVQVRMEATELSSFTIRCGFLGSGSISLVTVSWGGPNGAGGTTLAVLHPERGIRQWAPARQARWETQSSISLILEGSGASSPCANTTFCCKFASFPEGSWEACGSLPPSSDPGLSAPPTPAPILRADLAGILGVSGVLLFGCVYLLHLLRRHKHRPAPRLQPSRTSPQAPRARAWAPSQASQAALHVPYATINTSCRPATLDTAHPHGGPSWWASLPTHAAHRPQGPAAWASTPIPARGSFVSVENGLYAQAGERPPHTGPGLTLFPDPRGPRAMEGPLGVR
From the text: (§2) Then cells were washed three times with PBS containing 0.5% BSA. Ligands binding to cells were detected by adding goat anti-human IgG-FITC Ab (Pierce-Thermo Fisher Scientific).

[4] = target: T2, human CD112R, full length, expressed on …; assay: FACS-based competition on YTS-hCD112R cells, competitor hCD112-ECD-hFc
From the text: as §2

hCD112R-ECD-His6-Avi [5] = target: T1, hCD112R-ECD-His6-Avi; assay: SPR (Biacore T200), multi-cycle; 733-mIgG2a captured on Protein A/G, hCD112R-ECD-His6-Avi injected; 1:1 Langmuir
Experimental: as §1

hCD112R-ECD-His6-Avi [6] = target: T1, hCD112R-ECD-His6-Avi; assay: SPR (Biacore T200), multi-cycle; 733-mIgG2a captured on Protein A/G, hCD112R-ECD-His6-Avi injected; 1:1 Langmuir (the text prints the rounded 0.2 nM)
Experimental: as §1

[7] = target: T3, hCD112-ECD-hFc (extracellular domain of hCD112 fused to the Fc domain of human IgG1) (human, UniProt Q92692 32-360); assay: SPR (Biacore T200), single injection; hCD112R-ECD-mFc variant captured on anti-mFc Ab, hCD112-ECD-hFc injected
T3 construct: extracellular domain; also called hCD112 ligand; not shown: Fc domain of human IgG1
T3 sequence (looked up): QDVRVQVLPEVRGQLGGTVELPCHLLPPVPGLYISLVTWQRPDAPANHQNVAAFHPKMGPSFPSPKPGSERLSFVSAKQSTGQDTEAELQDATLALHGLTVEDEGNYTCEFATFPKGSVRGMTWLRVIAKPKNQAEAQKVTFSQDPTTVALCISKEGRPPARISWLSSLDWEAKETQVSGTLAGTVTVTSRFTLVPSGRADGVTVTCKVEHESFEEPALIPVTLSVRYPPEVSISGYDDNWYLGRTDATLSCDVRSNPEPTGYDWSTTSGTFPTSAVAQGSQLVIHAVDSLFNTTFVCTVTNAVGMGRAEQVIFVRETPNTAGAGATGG
Experimental: (§3) Kinetic analyses of the bindings of WT or mutated hCD112R-ECD-mFc proteins to H733 and hCD112-ECD were performed on a Biacore T200 instrument (Biacore, GE Healthcare). For the single-cycle SPR analysis, anti-mFc Ab (Thermo Fisher) was covalently attached to surfaces of a CM5 sensor chip using an amine coupling kit (GE Healthcare). WT or mutated hCD112R-ECD mFc fusion proteins were captured on the chip and H733-hIgG4 or hCD112-ECD-hFc were then injected. For the multi-cycle SPR analysis, anti-hFc Ab (Thermo Fisher) was covalently attached to surfaces of a CM5 sensor chip using an amine coupling kit (GE Healthcare). H733-hIgG4 or hCD112-ECD-hFc protein was captured on the chip and 2-fold serially diluted WT or mutated hCD112R-ECD-mFc proteins (3.125-100 nM) were then injected. Binding kinetics were evaluated using a 1:1 Langmuir binding model. The association rates (ka), dissociation rates (kd), and affinity constants (KD) were calculated using Biacore T200 evaluation software.

[8] = target: T3, hCD112-ECD-hFc (extracellular domain of …); assay: SPR (Biacore T200), multi-cycle; hCD112-ECD-hFc captured on anti-hFc Ab, hCD112R-ECD-mFc variant injected (3.125-100 nM); 1:1 Langmuir [Cont') C]
Experimental: as §3

[9] = target: T3, hCD112-ECD-hFc (extracellular domain of …); assay: SPR (Biacore T200), multi-cycle; hCD112-ECD-hFc captured on anti-hFc Ab, hCD112R-ECD-mFc WT injected (3.125-100 nM); 1:1 Langmuir [Cont') C]
Experimental: as §3

[10] = target: T3, hCD112-ECD-hFc (extracellular domain of …); assay: SPR (Biacore T200), multi-cycle; hCD112-ECD-hFc captured on anti-hFc Ab, hCD112R-ECD-mFc variant injected [Cont') C]
Experimental: as §3

B1: COM701 (humanized anti-hCD112R Ab developed by the Compugen Company, hIgG4) (antibody, from another filing, V domains shown)
VH: QVQLVQSGAEVKKPGASVKVSCKASGYTFTDYNINWVRQAPGQGLEWMGYIYPYIGGSGYAQKFQGRVTMTRDTSTSTVYMELSSLRSEDTAVYYCAREDKTARNAMDYWGQGTLVTVSS
VL: DIQMTQSPSSLSASVGDRVTITCRVSENIYSNLAWYQQKPGKAPKLLIYEATNLAEGVPSRFSGSGSGTDFTLTISSLQPEDFATYYCQHFWGTPYTFGQGTKLEIK
B1 showed an EC50 of luciferase production, Jurkat-NFAT-luc-hCD112R reporter cells with CHO-OKT3scFv hCD112 cells [1] of 0.69 µg/mL.

B2: anti-hCD112R mAb 733 (733-mIgG2a) (antibody, V domains shown)
VH: QVQLQQSGAELVRPGTSVKVSCKASGYAFTNYLIEWLKQRPGQGLEWIGVINPGHGFTNYNEKFKGKATLTADKSSSTAYMQLSSLTSDDSAVYFCARGEWDWYFDVWGAGTTVTVSS
VL: DIVMTQSQKFMSTSVGDRVSITCKASQNVGTAVAWYQQKPGQSPKLLIYSTSNRYTGVPDRFTGSGSGTDFTLTISNLQSEDLADYFCQQCSSYPFTFGSGTKLEIK
notes: VH and VL were cloned onto the constant regions of mouse IgG2a heavy and light chains (full-length mIgG2a, made in HEK 293F)
B2 was tested, and the Kd (hCD112R-ECD-His6-Avi [2]) was 0.2 nM, the “IC50 (read off the curve)” value [3] was roughly 2 µg/mL and the IC50 [4] was 0.29 µg/mL. For the same binder, the koff (hCD112R-ECD-His6-Avi [5]) was 0.000888 s⁻¹, the kon (hCD112R-ECD-His6-Avi [5]) was 4.49e+06 M⁻¹ s⁻¹ and the Kd (hCD112R-ECD-His6-Avi [6]) was 0.198 nM.

B3: S67P (Fc fusion, human, UniProt Q6DKI7 42-172, looked up)
Fc fusion chain: PEVWVQVRMEATELSSFTIRCGFLGPGSISLVTVSWGGPNGAGGTTLAVLHPERGIRQWAPARQARWETQSSISLILEGSGASSPCANTTFCCKFASFPEGSWEACGSLPPSSDPGLSAPPTPAPILRADL
notes: extracellular domain, amino acids 42-172; also called hCD112R-ECD-mFc S67P variant
B3: binds [7].

B4: H92A (Fc fusion, human, UniProt Q6DKI7 42-172, looked up)
Fc fusion chain: PEVWVQVRMEATELSSFTIRCGFLGSGSISLVTVSWGGPNGAGGTTLAVLAPERGIRQWAPARQARWETQSSISLILEGSGASSPCANTTFCCKFASFPEGSWEACGSLPPSSDPGLSAPPTPAPILRADL
notes: extracellular domain, amino acids 42-172; alanine-scanning variant; also called hCD112R-ECD-mFc H92A variant
B4 gave a Kd [8] of 72.1 nM, a koff [8] of 0.00532 s⁻¹ and a kon [8] of 73700 M⁻¹ s⁻¹.

B5: E94A (Fc fusion, human, UniProt Q6DKI7 42-172, looked up)
Fc fusion chain: PEVWVQVRMEATELSSFTIRCGFLGSGSISLVTVSWGGPNGAGGTTLAVLHPARGIRQWAPARQARWETQSSISLILEGSGASSPCANTTFCCKFASFPEGSWEACGSLPPSSDPGLSAPPTPAPILRADL
notes: extracellular domain, amino acids 42-172; alanine-scanning variant; also called hCD112R-ECD-mFc E94A variant
With B5 the Kd [8] was 112 nM, the koff [8] was 0.0126 s⁻¹ and the kon [8] was 112000 M⁻¹ s⁻¹.

B6: hCD112R-ECD-mFc WT (Fc fusion, human, UniProt Q6DKI7 42-172, looked up)
chain: PEVWVQVRMEATELSSFTIRCGFLGSGSISLVTVSWGGPNGAGGTTLAVLHPERGIRQWAPARQARWETQSSISLILEGSGASSPCANTTFCCKFASFPEGSWEACGSLPPSSDPGLSAPPTPAPILRADL
notes: range 42-172; also called WT hCD112R; wildtype (WT) hCD112R protein; not shown: Fc domain of mouse IgG2a
B6 was tested, and the Kd [9] was 64.3 nM, the koff [9] was 0.00514 s⁻¹ and the kon [9] was 80000 M⁻¹ s⁻¹.

B7: L72A (Fc fusion, human, UniProt Q6DKI7 42-172, looked up)
Fc fusion chain: PEVWVQVRMEATELSSFTIRCGFLGSGSISAVTVSWGGPNGAGGTTLAVLHPERGIRQWAPARQARWETQSSISLILEGSGASSPCANTTFCCKFASFPEGSWEACGSLPPSSDPGLSAPPTPAPILRADL
notes: extracellular domain, amino acids 42-172; alanine-scanning variant; also called hCD112R-ECD-mFc L72A variant
B7: no binding [10].
